For the data set, the system named is T1, QseB (rQseB) (Glaesserella parasuis serovar 5 strain CF7066), ORF:6fe33d28.
T1 sequence: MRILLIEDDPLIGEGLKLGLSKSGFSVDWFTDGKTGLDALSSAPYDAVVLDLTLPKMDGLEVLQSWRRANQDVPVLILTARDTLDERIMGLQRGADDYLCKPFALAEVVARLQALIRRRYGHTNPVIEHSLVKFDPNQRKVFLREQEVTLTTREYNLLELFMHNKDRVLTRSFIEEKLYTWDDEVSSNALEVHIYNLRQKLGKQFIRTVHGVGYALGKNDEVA
Put plainly: EMSA. As to conditions: 50 mM Tris, 10 mM MgCl2, 0.1 mM DTT. Background: A gel shift assay detects complexes by their altered migration in electrophoresis.

For the sequence “GAAGAACTTACGCTGAGTTGTTTAAATAGCTCGTTGAGCAAGGTGAATCCTCAGAAGAGTATGTCGAAGTAATGGGGCATATGCAAGTAGAAATAGATTTAGAAATGATCAAAACCTGAATCTGAAATATTATTTTAAATATATAGTCTTAACTGTCTTAGGAAAAGGCAGTAGAGATAGGATGAGATAACAGT (double strand) [capD promoter (Cy5.5-capD)]”, the binding result is listed as “binds”.
On to “AAATTGCTCCTAGTGTTTATTAGTAAAAGCATTATTGCTTTGTTGAGTGTATTAAAACAGAGAAATCTTAAGAAAGTCTTAAGATAAAAAAATTTATTTTTAGACAAAATCTAATAAAAAAGCGGCAAGATTCGTAAATCCTACCGCTTAGATCACATTATGAAAAAATTAGAATCTATAGTTTGCCCCAATAA (double strand) [qseB promoter (Cy5.5-qseB)]”, for which the binding result is “binds”.
